For test [1], the target named is T1, FGFR1 D2 point mutant K48A (human, UniProt P11362 22-254).
T1 chain: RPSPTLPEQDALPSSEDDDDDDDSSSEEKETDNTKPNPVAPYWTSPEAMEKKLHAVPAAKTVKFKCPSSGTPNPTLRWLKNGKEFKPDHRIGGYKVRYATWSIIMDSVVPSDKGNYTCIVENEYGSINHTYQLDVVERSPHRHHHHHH
Briefly: SPR as in Example 1.8. How it is done:
(§1) Binding affinities of anti-FGFR1 antibodies to FGFR1 were measured by Surface Plasmon Resonance (SPR) using a GE Healthcare BIAcore 4000 instrument as follows. Goat anti-human Fc antibody (Jackson ImmunoResearch Laboratories #109-005-098) was first immobilized on BIAcore carboxymethylated dextran CM5 chip using direct coupling to free amino groups following the procedure described by the manufacturer. Antibodies were then captured on the CM5 biosensor chip to achieve approximately 200 response units (RU). Binding measurements were performed using the running HBS-EP+ buffer. A 2-fold dilution series of His-tagged FGFR1 proteins were injected at a flow rate of 30 μl/min at 25° C. Association rates (kₒₙ, per mol/s) and dissociation rates (koff, per s) were calculated using a simple 1:1 Langmuir binding model (Biacore 4000 Evaluation Software). The equilibrium dissociation constant (KD, mol) was calculated as the ratio of koff/kₒₙ.
(§2) To obtain a finer, residue-level mapping of the epitope and to complement the HD exchange data, molecular modelling and manual inspection of the crystal structure of FGFR1 [(Beenken et al. 2012); PDB record 3OJV] was used to select solvent exposed residues within and around the epitope identified by HD exchange. The selected residues were mutated either to alanine (large to small) or to glycine if the selected residue was alanine. In total 35 point mutants were designed, expressed and purified in HEK cells, and tested for binding to mAb #A08 using surface plasmon resonance as described in Example 1.8. The affinity of the antibody for wild-type and each mutant was determined and used to calculate the contribution of each epitope residue to the binding energy.

For test [2], the target named is T2, FGFR1 D2 point mutant A55G (human, UniProt P11362 22-254).
T2 chain: T1 chain with A48K, A55G
Briefly: SPR as in Example 1.8. How it is done: as §1, §2

For the next test, the target named is FGFR1 on NCI-H520 cells (human, UniProt P11362 22-822). Briefly: cell-based or functional assay.
In test [3] the target is T3, FGFR1 D2 point mutant S45A (human, UniProt P11362 22-254).
T3 chain: T1 chain with S45A, A48K
Briefly: SPR; free energy change relative to wild-type D2. Put shortly: (§3)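 Point mutants of FGFR1 D2, expressed in HEK cells, were tested by SPR against mAb #A08 captured via anti-human Fc to ~200 RU, in HBS-EP+ at 25° C. KD came from a 1:1 Langmuir fit (koff/kon), and ΔΔG was derived from the ratio of wild-type to mutant KD.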
On the technique in general: SPR reads the build-up and loss of mass on a sensor chip optically.

Test [4] concerns the target T4, FGFR1 D2 point mutant E50A (human, UniProt P11362 22-254).
T4 chain: T1 chain with A48K, E50A
Briefly: SPR; free energy change relative to wild-type D2. The gist of the method: as §3

Test [5] deals with T5, FGFR1 D2 point mutant V56A (human, UniProt P11362 22-254).
T5 chain: T1 chain with A48K, V56A
Briefly: SPR; free energy change relative to wild-type D2. The gist of the method:
as §3

Test [6] deals with T6, FGFR1 D2 point mutant A59G (human, UniProt P11362 22-254).
T6 chain: T1 chain with A48K, A59G
Description: SPR; free energy change relative to wild-type D2. Put shortly:
as §3

Test [7] concerns the target T7, FGFR1 D2 point mutant K86A (human, UniProt P11362 22-254).
T7 chain: T1 chain with A48K, K86A
Briefly: SPR; free energy change relative to wild-type D2. Put shortly:
as §3

In test [8] the target is T8, FGFR1 D2 point mutant Y98A (human, UniProt P11362 22-254).
T8 chain: T1 chain with A48K, Y98A
Briefly: SPR; free energy change relative to wild-type D2. Put shortly:
as §3

Test [9] deals with T9, FGFR1 D2 point mutant A99G (human, UniProt P11362 22-254).
T9 chain: T1 chain with A48K, A99G
Briefly: SPR; free energy change relative to wild-type D2. Put shortly:
as §3

In test [10] the target is T10, FGFR1 D2 point mutant T100A (human, UniProt P11362 22-254).
T10 chain: T1 chain with A48K, T100A
Description: SPR; free energy change relative to wild-type D2. Put shortly: as §3

Where a chain is given by its changes, count along the chain named.

Chain of FGFR1 on NCI-H520 cells (P11362 22-822): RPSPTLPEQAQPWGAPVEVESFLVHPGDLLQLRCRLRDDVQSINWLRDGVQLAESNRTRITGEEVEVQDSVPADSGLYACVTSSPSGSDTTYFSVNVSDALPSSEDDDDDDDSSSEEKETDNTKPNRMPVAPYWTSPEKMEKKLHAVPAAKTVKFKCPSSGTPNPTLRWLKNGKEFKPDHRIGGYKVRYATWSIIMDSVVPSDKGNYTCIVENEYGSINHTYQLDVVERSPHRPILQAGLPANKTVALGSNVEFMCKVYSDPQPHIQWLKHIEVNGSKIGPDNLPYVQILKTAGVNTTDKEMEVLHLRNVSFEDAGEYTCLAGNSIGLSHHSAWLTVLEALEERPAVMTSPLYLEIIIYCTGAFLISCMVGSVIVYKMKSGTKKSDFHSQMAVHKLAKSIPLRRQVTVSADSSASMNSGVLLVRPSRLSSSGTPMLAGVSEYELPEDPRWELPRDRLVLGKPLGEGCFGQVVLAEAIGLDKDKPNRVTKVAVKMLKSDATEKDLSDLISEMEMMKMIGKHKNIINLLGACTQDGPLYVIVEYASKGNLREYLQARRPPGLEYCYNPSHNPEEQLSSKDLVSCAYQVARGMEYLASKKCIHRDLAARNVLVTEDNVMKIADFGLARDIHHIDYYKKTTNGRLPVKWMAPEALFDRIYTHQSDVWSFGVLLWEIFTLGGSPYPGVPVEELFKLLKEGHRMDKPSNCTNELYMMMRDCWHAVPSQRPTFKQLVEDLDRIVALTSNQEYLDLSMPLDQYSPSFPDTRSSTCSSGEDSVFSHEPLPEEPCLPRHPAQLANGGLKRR

B1: mAb #A08 (antibody, V domains shown)
VH: EVQLQESGPGLVKPSGTLSLTCAVSGGSISSNNWWSWVRQPPGKGLEWIGEIYHSGSTSYNPSLKSRVTISVDKSKNQFSLKLNSVTAADTAVYYCARGTDWFDPWGQGTLVTVSS
VL: QAVLTQPPSVSVAPGQTARITCGGNNIGSESVHWYQQKPGQAPVLVVYDDSDRPSGIPERFSGSNSGNTATLTISRVEAGDEADYYCQVWDSTSDHRVFGGGTKLTVL
notes: Only variable domains are tied to the name mAb #A08 (hit); also called #A08 hit; mAb #08
Turning to B1, the Kd in test [1] was 0.09 nM; in test [2], 0.22 nM. Further, the “IC50, inhibition of P-FGFR1 in NCI-H520 cells, FGF1 stimulated” value with FGFR1 on NCI-H520 cells amounted to 4 nM. Further, the “IC50, inhibition of P-FGFR1 in NCI-H520 cells, FGF2 stimulated” value in the test with FGFR1 on NCI-H520 cells came out at 0.2 nM. Moreover, the “IC50, inhibition of P-FGFR1 in NCI-H520 cells, non-stimulated (hashtag: estimated IC50, poor fit)” value with FGFR1 on NCI-H520 cells was roughly 1000 nM. In addition, the ΔΔGmut in [3] is 0.05 kcal/mol; in test [4], 0.02 kcal/mol; in test [5] it was 0.2 kcal/mol; in [6], 1.78 kcal/mol; in [7], -0.06 kcal/mol; in [8], -0.04 kcal/mol. Further, the ΔΔGmut in test [9] is -0.05 kcal/mol; in test [10], 0.12 kcal/mol.

The term Kd denotes the equilibrium constant for the complex coming apart. Lower therefore signals tighter binding.

The values are drawn from patent publication US20190367620A1 (Merck KGaA, published 2019).
